The values below come from US20070042500A1, “Direct observation of molecular modifications in biological test systems by measuring flourescence lifetime” (Bayer Healthcare AG, priority 2003, published 2007).

One series has as its target PDE1b phosphodiesterase (Homo sapiens, UniProt Q01064). Briefly: PDE reaction with Fl-cAMP followed directly by fluorescence lifetime. In kind it is biochemical. Particulars: without inhibitor. As to the method: Like the phosphatases and kinases discussed above, phosphodiesterases are a very important class of targets, inter alia in the fields of indication of cardiovascular, metabolic disorders, central nervous system, cancer and respiratory diseases. It is therefore of great interest to have a generic assay format which can measure the conversion of cAMP or cGMP to the respective monophosphate. Usually detection enzyme cascades are used. […] In the experiment, first 1 μM Fl-cAMP and a 1:360 dilution of PDE1b were mixed in the presence of different concentrations of the inhibitor BAY 383045. The kinetics of the enzyme reaction was measured by means of an Ultra FLT prototype (Tecan) at room temperature.

Series [1] can be described thus: FLT of potential reactant and product of the TAFI enzyme reaction. Particulars: 60 nM; independent of pH (6-9.5) and NaCl concentration (200 mM, 2 M). Type of series: physicochemical. An excerpt:
The enzyme thrombin activated with fibrinolysis inhibitor (TAFI) is a carboxypeptidase which plays an important part in thromboses. TAFI cleaves the arginine of the peptide sequence IFTR. This reaction may be detected by either mass spectrometric or chromatographic methods. Both methods are not suitable for high throughput substance testing. Alternatively, more or less complex enzyme cascades or chemical reactions may be used which generate a measurable absorption, fluorescence or luminescence signal. No method has been described to date with which the TAFI reaction can be measured directly and which is suitable at the same time for higher throughput. Therefore, the fluorescence lifetimes of the conjugates FJ23 and FJ24 which both carry a fluorescent dye excitable at 630 nm (Evoblue30, Mobitec) and which differ only in the FJ24 conjugate lacking the C-terminal arginine were measured. FJ23 is a potential reactant of the TAFI reaction, while FJ24 would be the corresponding reaction product. The FJ23 and FJ24 conjugates were dissolved at a concentration of 60 nM in various buffers with pH values of 6, 7, 8 and 9.5, and in the presence of 200 mM and 2 M NaCl.

Series [2] can be described thus: FLT difference between phosphorylated and non-phosphorylated fluoresceine-kemptide under various pH/NaCl conditions. In kind it is physicochemical. Particulars: 50 nM; pH 6.0 to 9.5 buffers. How it is done:
0.1 M NaOH, 50 mM borate buffer pH 9.5, 50 mM HEPES buffer pH 8.0, 50 mM HEPES buffer pH 7.0, 50 mM MES buffer pH 6.0, 200 mM NaCl (low)
The quality of an FLT assay improves with increasing differences of the fluorescence lifetimes of reactant and product. An optimally large FLT difference will not be measured immediately in every case. On the other hand, it should be possible to increase the FLT difference initially obtained, for example by selecting and combining various parameters such as, for example, fluorescent dye, spacer molecule between dye and substrate molecule, or polarity, pH, ionic strength of the solvent or other additive. […] In each case 50 nM Fl-P-kemptide and Fl-kemptide were dissolved in the solutions described under Material, and their FLTs were measured by means of a modified Nanoscan instrument (IOM GmbH, Berlin, Germany) which transferred the signals to a transient recorder. 16 decay curves were averaged for each data point. The descending part of the logarithmic-scale curve was evaluated by means of linear regression and the negative slope was mathematically converted into FLT.

The nature of series [3]: Fluorescence lifetime (FLT) of phosphorylated vs non-phosphorylated fluoresceine-peptide conjugate, Ultra FLT prototype (Tecan). Type of series: physicochemical. Particulars: 10 nM in 50 mM HEPES pH 7.5; mean of 10 measurements of 1 s. How it is done:
It was intended to investigate whether there is a difference between the fluorescence lifetimes (FLTs) of the fluoresceine-peptide conjugates Fl-P1 and Fl-1. For this purpose, in each case 10 nM Fl-P1 and Fl-1 were dissolved in 50 mM HEPES pH 7.5. The fluorescence lifetimes (FLTs) were measured by means of an Ultra FLT prototype (Tecan). In each case, 10 measurements of 1 s each were averaged.

PDE1b phosphodiesterase, sequence (Q01064 whole entry): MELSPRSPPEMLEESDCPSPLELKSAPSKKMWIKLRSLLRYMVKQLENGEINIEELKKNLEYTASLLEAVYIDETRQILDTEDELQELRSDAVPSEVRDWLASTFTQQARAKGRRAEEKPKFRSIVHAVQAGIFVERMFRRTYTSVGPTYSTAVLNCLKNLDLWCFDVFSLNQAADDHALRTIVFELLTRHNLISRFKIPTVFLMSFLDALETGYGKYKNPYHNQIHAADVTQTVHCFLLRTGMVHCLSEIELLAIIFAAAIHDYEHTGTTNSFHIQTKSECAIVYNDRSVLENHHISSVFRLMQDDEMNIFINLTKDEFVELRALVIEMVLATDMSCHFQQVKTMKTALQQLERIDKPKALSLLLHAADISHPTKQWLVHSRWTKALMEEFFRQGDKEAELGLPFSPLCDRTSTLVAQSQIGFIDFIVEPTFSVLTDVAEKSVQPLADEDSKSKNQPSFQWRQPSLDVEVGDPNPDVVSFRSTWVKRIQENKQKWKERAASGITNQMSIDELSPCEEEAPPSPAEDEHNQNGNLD

For `Nc1ncnc2c1nc(SCCNC(=S)Nc1ccc(-c3c4ccc(=O)cc-4oc4cc(O)ccc34)c(C(=O)O)c1)n2C1OC2COP(=O)(O)OC2C1O` (stereo not shown) [Fl-cAMP, 8-fluo-cAMP], the “fluorescence lifetime at start of PDE1b reaction” value at PDE1b phosphodiesterase (1 μM Fl-cAMP, start of reaction) is given as “approx. 3500 ps”. In addition, at PDE1b phosphodiesterase (within 100 minutes of reaction), the “fluorescence lifetime after PDE1b reaction (conversion to Fl-AMP)” value was “approx. 3350 ps”.
Take Evoblue30-Ttds(Spacer)-IFTR-COOH [FJ24]: the fluorescence lifetime in series [1] came out at 2194±18 ps.
“fluoresceine-C6-LRRASLGCONH2 [Fl-kemptide]”: in series [2], the “differentiation of phosphorylated and non-phosphorylated form by means of FLT” value is reported as “improves when the pH increases from 6.0 to 9.5”.
Consider “fluoresceine-C6-LRRApSLGCONH2 [Fl-P-kemptide]”, for which the “differentiation of phosphorylated and non-phosphorylated form by means of FLT” value in series [2] is “improves when the pH increases from 6.0 to 9.5”.
Turning to “fluoresceine-C6-TEGQYQPQP-COOH ({fluorescein-C6}-TEGQYQPQP-OH) [Fl-1]”, the “fluorescence lifetime (FLT)” value in series [3] was 3600 ps.
As for fluoresceine-C6-TEGQYpQPQP-COOH [Fl-P1], the “fluorescence lifetime (FLT)” value in series [3] was found to be 3880 ps.
